US6340783
Each block holds one substance with its values, some of them ahead of it.

How the values were obtained:
[1] = target: beta-amyloid protein (BAP) residues 1-28, synthetic peptide (Homo sapiens (Human)) (UniProt P05067); test: BAP (1-28) affinity column after heparitinase/heparinase digestion
[2] = target: β/A4 (1-28) with three amino acid substitutions of the putative heparin binding domain (histidine, histidine and lysine changed to glycine) (UniProt P05067); test: affinity column chromatography of 125I-HSPG, mutated versus normal β/A4 (1-28) column
Chain of β/A4 (1-28) with three amino acid substitutions of the putative heparin binding domain (histidine, histidine and lysine changed to glycine) (P05067 672-699): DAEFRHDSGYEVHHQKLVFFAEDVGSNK

[3] = target: beta-amyloid protein (BAP) residues 1-28, synthetic peptide (Homo sapiens (Human)) (UniProt P05067); test: BAP (1-28) affinity column, no unlabeled competing ligand
[4] = target: beta-amyloid protein (BAP) residues 1-28, synthetic peptide (Homo sapiens (Human)) (UniProt P05067); test: competition with 125I-HSPG for binding to the BAP (1-28) affinity column

percent still able to bind in comparison to undigested controls [1]: 61%
Substance: heparitinase/heparinase-digested 125I-labeled HSPG, A0AAA9TDR0 23-4401

percent decrease in binding against normal β/A4 (1-28) [2]: 50 to 60%
Substance: high Mr heparan sulfate proteoglycan (HSPG) isolated from the culture media of bovine aortic endothelial cells (from UniProt A0AAA9TDR0 23-4401)

percent bound [3]: 21.6%
Substance: high Mr heparan sulfate proteoglycan (HSPG) isolated from the culture media of bovine aortic endothelial cells, A0AAA9TDR0 23-4401

IC50 [4]: < 1000 nM
Substance: low density heparan sulfate proteoglycan isolated from the mouse Engelbreth-Holm-Swarm (EHS) sarcoma (perlecan), Q05793 22-3707
